The Kd is a measure of binding affinity in units of concentration. The term koff denotes the first-order rate constant of dissociation. The term kon denotes the rate constant with which the complex forms. For orientation: stoichiometry N means the number of molecules, sites or subunits per partner or assembly.

Experimental findings from article PMC10382678, “The collagen ColQ binds to LRP4 and regulates the activation of the Muscle-Specific Kinase–LRP4 receptor complex by agrin at the neuromuscular junction” (The Journal of Biological Chemistry, 2023) are described below.

In series [1] the target is T1, purified recombinant mouse ectoLRP4 His-tag (R&D Systems) (mouse, UniProt Q8VI56 21-1725).
T1 construct: low-density lipoprotein receptor-related protein 4, mouse, ectodomain; also called purified ectoLRP4; source: bought: R&D Systems
The series is described as follows: SPR; same ColQ-Flag surface; single-cycle kinetics with purified ectoLRP4-His at 296, 444, 666, 1000 and 1500 nM, 5 μl/min, 3 min association, 5 min dissociation, no regeneration; HBS-EP; 1:1 binding model with drifting baseline; n = 2. The following applies: one partner purified. A general note: SPR reads the build-up and loss of mass on a sensor chip optically.

Series [2] concerns the molecule itself. The series is described as follows: co-sedimentation; extracts (0.8 M NaCl, 1% CHAPS) of HEK 293T cells cotransfected with ColQ-Flag and AChE, run on 5 to 20% sucrose gradients with 0.8 M NaCl, 10 mM EDTA, 0.2% Brij-97; fractions assayed for AChE activity; profile not shown.

T1 sequence (Q8VI56 21-1725): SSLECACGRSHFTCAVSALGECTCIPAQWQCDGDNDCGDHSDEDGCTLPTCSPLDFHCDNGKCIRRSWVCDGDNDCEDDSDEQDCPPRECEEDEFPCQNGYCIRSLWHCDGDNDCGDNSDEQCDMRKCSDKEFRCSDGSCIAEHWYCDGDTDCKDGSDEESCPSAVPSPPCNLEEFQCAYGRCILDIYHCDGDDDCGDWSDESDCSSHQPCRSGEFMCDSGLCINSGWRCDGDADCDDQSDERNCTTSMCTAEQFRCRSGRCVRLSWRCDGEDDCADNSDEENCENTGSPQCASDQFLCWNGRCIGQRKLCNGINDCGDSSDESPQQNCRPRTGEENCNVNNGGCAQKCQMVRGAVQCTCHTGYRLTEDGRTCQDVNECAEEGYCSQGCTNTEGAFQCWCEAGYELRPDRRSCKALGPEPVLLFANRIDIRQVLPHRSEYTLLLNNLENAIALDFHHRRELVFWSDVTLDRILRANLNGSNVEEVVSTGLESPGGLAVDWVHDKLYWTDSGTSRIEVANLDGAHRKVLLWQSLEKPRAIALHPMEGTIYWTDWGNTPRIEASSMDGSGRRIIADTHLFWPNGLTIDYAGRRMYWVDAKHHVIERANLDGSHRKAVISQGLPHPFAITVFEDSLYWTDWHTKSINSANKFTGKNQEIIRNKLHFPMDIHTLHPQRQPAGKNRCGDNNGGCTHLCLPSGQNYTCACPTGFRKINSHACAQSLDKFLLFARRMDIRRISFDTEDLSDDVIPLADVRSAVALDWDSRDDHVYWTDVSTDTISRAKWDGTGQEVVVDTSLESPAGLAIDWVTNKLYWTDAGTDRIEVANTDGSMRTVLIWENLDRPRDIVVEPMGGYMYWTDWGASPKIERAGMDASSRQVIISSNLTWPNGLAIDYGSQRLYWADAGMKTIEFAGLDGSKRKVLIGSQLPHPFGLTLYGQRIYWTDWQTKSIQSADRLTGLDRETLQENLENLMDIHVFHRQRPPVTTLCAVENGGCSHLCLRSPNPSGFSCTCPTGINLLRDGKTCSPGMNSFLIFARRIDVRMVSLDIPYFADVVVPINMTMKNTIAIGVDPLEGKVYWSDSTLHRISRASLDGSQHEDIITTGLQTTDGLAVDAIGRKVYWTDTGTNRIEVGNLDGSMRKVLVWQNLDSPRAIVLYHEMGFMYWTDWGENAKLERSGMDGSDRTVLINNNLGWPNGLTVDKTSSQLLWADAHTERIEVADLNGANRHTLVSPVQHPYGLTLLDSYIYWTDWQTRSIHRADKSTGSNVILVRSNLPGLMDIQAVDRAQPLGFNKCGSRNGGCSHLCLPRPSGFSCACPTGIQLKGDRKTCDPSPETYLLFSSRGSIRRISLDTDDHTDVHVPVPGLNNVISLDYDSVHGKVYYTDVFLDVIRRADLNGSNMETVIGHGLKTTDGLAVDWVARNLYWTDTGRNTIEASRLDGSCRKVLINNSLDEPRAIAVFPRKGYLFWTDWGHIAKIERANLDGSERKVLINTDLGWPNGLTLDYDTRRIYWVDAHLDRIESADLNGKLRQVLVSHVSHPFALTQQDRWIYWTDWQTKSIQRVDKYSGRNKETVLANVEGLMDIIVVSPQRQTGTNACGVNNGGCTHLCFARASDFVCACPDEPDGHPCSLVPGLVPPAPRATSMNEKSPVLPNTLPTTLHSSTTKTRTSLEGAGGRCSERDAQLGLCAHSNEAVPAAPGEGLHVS

B1: ColQ-Flag (rat collagen Q, ColQ1a, with a Flag epitope after amino acid 26) (natural protein, UniProt O35167 23-458, looked up)
chain: QPTFINSVLPISAALPGLDQKKRGNHKACCLLMPPPPPLFPPPFFRGSRSPLLSPDMKNLLELEASPSPCMQGSLGSPGPPGPQGPPGLPGKAGPKGEKGDLGRPGRKGRPGPPGVPGEPGPVGWPGPEGPRGEKGDVGMMGLPGSRGPMGSKGFPGSRGEKGSRGERGDLGPKGEKGFPGFPGMLGQKGEMGPKGESGIAGHRGPTGRPGKRGKQGQKGDSGIMGPPGKPGPSGQPGRQGPPGPPGPPSAGQLVMGLKGERGFPGPPGRCLCGPPANVNNPSYGDPMYGRGSPRVPAIFVVNNQEELEKLNTQNAIAFRRDQRSLYFKDSLGWLPIQLTPFYPVGLHHKAAWHLCGDGVLQPGEECDDGNPDVSDGCIDCHRAYCGDGYRHRGVEDCDGSDFGYLKCETYLPGSYGELRCTQYCSIDSTPCRYFT
notes: Never purified on its own, only immunocaptured from lysates; source: captured from the lysate on anti-Flag beads, wells or sensor chip; not shown: Flag, internal (after residue 26), kept
On to B1, for which, in series [1], the Kd was 94 nM, the koff amounted to 0.0091 s⁻¹ and the on-rate (kon) is 96400 M⁻¹ s⁻¹. In addition, in series [2], the “stoichiometry N” value was found to be 3.
